In test [1] the test system is five strains of stationary phase S. pneumoniae. Nature of the test: Bactericidal activity of ClyX-3 on pneumococcal strains. It counts as cell-based, Streptococcus pneumoniae. The settings on record: 5 μg/ml; 5 min. The method, then: (a) Bactericidal effects of ClyX-3 against five strains of stationary phase S. pneumoniae. 5 μg/ml of enzymes were mixed with 10^6 bacterial cultures for 5 min. Log killing was determined through the comparisons of PBS treatment and enzymes treatment. (b) Bactericidal effects of ClyX-4 against stationary phase streptococci. 50 μg/ml of enzymes were mixed with 10^6 bacterial culture for 1 h. Log killing was determined through the comparisons of PBS treatment and enzymes treatment;
(§1) With regard to bactericidal assay, bacterial cells were diluted to 2× rich media to generate a final concentration of 5.0×10^6 CFU/ml. 100 μl of the diluted bacterial culture was added into a 96-well titration plate in triplicate and mixed with 100 μl of sterile-filtered enzymes. Plates were sealed and incubated at 37° C. for 5-60 min. After the incubation, bacterial cells were serially diluted in 10-fold increments into sterile PBS and plated on THY/TSB agar. Log killing was calculated as follows: −log[(CFU under enzyme treatment)/(CFU under PBS treatment)].
With regard to applying the design rationale to add a C′ terminal EAD such that two EADs are disposed at each side of the CBD, the process was used to engineer endolysins for increased activity. […]

Test [2] concerns eight serotypes of pneumococci. Nature of the test: MIC test on pneumococcal strains. It counts as cell-based, Streptococcus pneumoniae. As to the method:
The MICs of enzymes and antibiotics were determined in a 96-well titration plate in triplicate. Briefly, the overnight pneumococcal culture was diluted with 2×THY to obtain a final concentration of 1×10^7 CFU/ml, and other bacterial species were diluted with 2-folded medium to 1×10^5 CFU/ml. 100 μl of the diluted bacterial culture was subjected into each well, mixing with the serial 2-fold diluted 100 μl of enzymes/antibiotics. PBS buffer was used as a negative control. The plates were sealed via parafilm and statically incubated at 37° C. incubator for 24 h. The MIC was defined as the lowest concentration of treatment that inhibited visible growth of the bacterium.
To further evaluate the activity of ClyX-1, MIC tests were performed against eight serotypes of pneumococci including penicillin-resistant strains and capsule-free mutant with information shown in FIG. 13. Penicillin and levofloxacin were tested as standards to benchmark the antimicrobial activity. All of the strains were sensitive to levofloxacin (MIC<=2). Only the two penicillin-resistant strains indicated MIC larger than 2 μg/ml (resistance). […] The MICs of ClyX-1 were lower than that of Cpl-1 and even levofloxacin, ranging from 0.13 μg/ml to 0.5 μg/ml.

A further test concerns S. pneumoniae D39. Nature of the test: Bactericidal assay on D39, ClyX-1 compared with Cpl-1 and PlyCA. It counts as cell-based, Streptococcus pneumoniae. As to the method: (§2) (a) Different concentrations of ClyX-1 and Cpl-1 were mixed with 10^6 overnight S. pneumoniae D39 culture for 5 min. The cells were then serial diluted and plated on the THY plates. Log killing was determined through the comparisons of PBS treatment and the enzymes treatment. (b) Female BALB/c mice were injected intraperitoneally with pneumococcus strain S. pneumoniae NS26 at a single dose at 2.95×10^7 colony forming units (CFU) per mouse. One hour after the infection, mice were intraperitoneally received a single dose of different treatments in different amount per mouse. The lines represent the percentage survival of mice for 10 days. The data was plotted as Kaplan-Meier survival curves and analyzed via the Log-rank (Mantel-Cox) test (*P<0.001; **P<0.0001);
as §1
Bactericidal assays were repeated using the three lysins at different concentrations (0.5 μg/ml to 50 μg/ml) on a different strain, D39 (FIG. 10a).

The subject of another test is S. pneumoniae NS26. Nature of the test: Mouse systemic infection model, survival. It counts as in vivo, female BALB/c mice. As to the method:
as §2
With regard to in vivo mouse infection models, mouse infection experiments were carried out in an ABSL-2 lab. In the mouse systemic infection model, female BALB/c mice (6-8 weeks old) were injected intraperitoneally with S. pneumoniae NS26 at a single dose of 2.95×10^7 CFU/mouse and divided randomly into multiple groups. Bacterial burden in blood and organs in mice 1 h post-infected were confirmed by plating on THY agar as described previously. One hour post-infection, these groups intraperitoneally received a single dose of 20, 40, or 80 μg/mouse of […] (n=10); 20, 40, or 80 μg/mouse of Cpl-1 (n=10); 100 μg/mouse of penicillin G (n=10); or an equal volume of PBS buffer (n=10). The survival data for all groups were recorded for 10 days.
To validate the in vitro bactericidal activity of ClyX-1, we applied a mouse systemic infection model to test the in vivo efficacy of the enzyme. Mice were challenged to a 2-days lethal-dose of 2.95×10^7 CFU. One hour after infection, the mice were intraperitoneally injected a single dose containing different amount of either ClyX-1 or Cpl-1 ranging from 20 μg-80 μg. The antibiotics control was 100 μg/mouse of penicillin G, and the negative control was as PBS, pH7.4 buffer. The mice were then observed and recorded for the survival data. All the mice treated with PBS buffer died within the first 2 days.

B1: ClyX-3: the full-length Cpl-1 with an additional C′ terminal PlyC CHAP; Seq. ID No. 21 (protein)
chain: MVKKNDLFVDVSSHNGYDITGILEQMGTTNTIIKISESTTYLNPCLSAQVEQSNPIGFYHFARFGGDVAEAEREAQFFLDNVPMQVKYLVLDYEDDPSGDAQANTNACLRFMQMIADAGYKPIYYSYKPFTHDNVDYQQILAQFPNSLWIAGYGLNDGTANFEYFPSMDGIRWWQYSSNPFDKNIVLLDDEEDDKPKTAGTWKQDSKGWWFRRNNGSFPYNKWEKIGGVWYYFDSKGYCLTSEWLKDNEKWYYLKDNGAMATGWVLVGSEWYYMDDSGAMVTGWVKYKNNWYYMTNERGNMVSNEFIKSGKGWYFMNTNGELADNPSFTKEPDGLITVAGSDRVAANLANAQAQVGKYIGDGQCYAWVGWWSARVCGYSISYSTGDPMLPLIGDGMNAHSIHLGWDWSIANTGIVNYPVGTVGRKEDLRVGAIWCATAFSGAPFYTGQYGHTGIIESWSDTTVTVLEQNILGSPVIRSTYDLNTFLSTLTGLITFK
modifications: Bacteriophage
notes: the full-length Cpl-1 with an additional C′ terminal PlyC CHAP; ID No. 21
In the case of B1, the “log reduction of tested pneumococcal strains” value in test [1] was approximately 4 logs. Besides, the “activity by MIC compared with parental endolysin and ClyX-1” value in test [2] is on record as “better than parental endolysins”.

B2: Cpl-1: parental endolysin derived from the streptococcal Cp-1 phage (protein, UniProt P15057 1-339, looked up)
Lysozyme: MVKKNDLFVDVSSHNGYDITGILEQMGTTNTIIKISESTTYLNPCLSAQVEQSNPIGFYHFARFGGDVAEAEREAQFFLDNVPMQVKYLVLDYEDDPSGDAQANTNACLRFMQMIADAGYKPIYYSYKPFTHDNVDYQQILAQFPNSLWIAGYGLNDGTANFEYFPSMDGIRWWQYSSNPFDKNIVLLDDEEDDKPKTAGTWKQDSKGWWFRRNNGSFPYNKWEKIGGVWYYFDSKGYCLTSEWLKDNEKWYYLKDNGAMATGWVLVGSEWYYMDDSGAMVTGWVKYKNNWYYMTNERGNMVSNEFIKSGKGWYFMNTNGELADNPSFTKEPDGLITVA
Take B2: the log reduction with S. pneumoniae D39 (0.5 μg/ml, 5 min) is given as less than 1 log. Further, the “concentration at which the bacteria culture was sterilized” value in the test with S. pneumoniae D39 (within 5 min, tested 0.5 to 50 μg/ml) stood at 50 µg/mL. The “log reduction of tested pneumococcal strains” value in test [1] is approximately 2 logs. Further, in the test on S. pneumoniae NS26 (20 μg single i.p. dose 1 h after infection), the “time within which the mice had died” value is not above 5 days. Besides, the “mice rescued (survival)” value in the test on S. pneumoniae NS26 (80 μg single i.p. dose 1 h after infection, 10 days) turned out to be 20%.
